T1: human leptin binding domain (hLBD) consisting of the amino acids 428-635 of human leptin receptor (human, UniProt P48357 428-635)
T1 sequence (looked up): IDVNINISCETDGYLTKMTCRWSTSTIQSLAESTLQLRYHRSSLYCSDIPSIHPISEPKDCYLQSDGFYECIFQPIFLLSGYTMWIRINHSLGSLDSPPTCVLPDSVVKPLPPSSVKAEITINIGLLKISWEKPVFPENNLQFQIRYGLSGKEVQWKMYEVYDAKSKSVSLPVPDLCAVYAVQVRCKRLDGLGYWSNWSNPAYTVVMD

T2: human leptin binding domain (hLBD) consisting of the amino acids 428-635 of human leptin receptor (human, UniProt P48357 428-635)
T2 chain: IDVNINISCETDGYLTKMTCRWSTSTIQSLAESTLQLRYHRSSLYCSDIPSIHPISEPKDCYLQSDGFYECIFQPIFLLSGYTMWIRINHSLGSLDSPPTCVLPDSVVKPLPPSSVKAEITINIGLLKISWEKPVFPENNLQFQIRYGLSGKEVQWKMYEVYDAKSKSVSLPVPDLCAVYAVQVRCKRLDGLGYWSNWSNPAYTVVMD


How the values were obtained:
[1] = target: T1, human leptin binding domain (hLBD) …; test: competitive non-radioactive receptor-binding assay; hLBD immobilized; biotinylated human leptin bound in the presence of the indicated concentrations of SRLA or PEG-SRLA; triplicates; conditions: both partners purified
[2] = target: T2, human leptin binding domain (hLBD) …; test: ELISA; competition with biotinylated human leptin; given as EC50

Binder | binding result [1] | IC50 [2] [nM]
super active rat leptin antagonist (D23L/L39A/D40A/F41A mutant), non-pegylated (ligand, extra Ala left at the N-terminus from an extra Met-Ala (Met is cleaved by the bacteria); leptin, rat; about 16 kDa by SDS-PAGE; also called SRLA) AVPIHKVQDDTKTLIKTIVTRINLISHTQSVSARQRVTGAAAIPGLHPILSLSKMDQTLAVYQQILTSLPSQNVLQIAHDLENLRDLLHLLAFSKSCSLPQTRGLQKPESLDGVLEASLYSTEVVALSRLQGSLQDILQQLDLSPEC | binds | 0.977
mono-pegylated super active rat leptin antagonist (D23L/L39A/D40A/F41A mutant) (ligand, mono-pegylated (90%, with 10% double pegylated product); site and PEG size not stated, extra Ala left at the N-terminus from an extra Met-Ala (Met is cleaved by the bacteria); leptin, rat; same chain as m1; also called PEG-SRLA; pegylated superactive rat leptin receptor antagonist) AVPIHKVQDDTKTLIKTIVTRINLISHTQSVSARQRVTGAAAIPGLHPILSLSKMDQTLAVYQQILTSLPSQNVLQIAHDLENLRDLLHLLAFSKSCSLPQTRGLQKPESLDGVLEASLYSTEVVALSRLQGSLQDILQQLDLSPEC | binds | 9.31

Reference: paper PMC3901689, “Leptin-Induced Endothelium-Dependent Vasorelaxation of Peripheral Arteries in Lean and Obese Rats: Role of Nitric Oxide and Hydrogen Sulfide” (PLoS ONE, 2014)
